Test results from US20050229265.

Assays:
[1] = molecular target: T1, P element transposase (delta 2-3) (UniProt Q7M3K2); experiment: cell_activity; settings: germline remobilization in Drosophila, delta 2-3 at 99B
T1 sequence: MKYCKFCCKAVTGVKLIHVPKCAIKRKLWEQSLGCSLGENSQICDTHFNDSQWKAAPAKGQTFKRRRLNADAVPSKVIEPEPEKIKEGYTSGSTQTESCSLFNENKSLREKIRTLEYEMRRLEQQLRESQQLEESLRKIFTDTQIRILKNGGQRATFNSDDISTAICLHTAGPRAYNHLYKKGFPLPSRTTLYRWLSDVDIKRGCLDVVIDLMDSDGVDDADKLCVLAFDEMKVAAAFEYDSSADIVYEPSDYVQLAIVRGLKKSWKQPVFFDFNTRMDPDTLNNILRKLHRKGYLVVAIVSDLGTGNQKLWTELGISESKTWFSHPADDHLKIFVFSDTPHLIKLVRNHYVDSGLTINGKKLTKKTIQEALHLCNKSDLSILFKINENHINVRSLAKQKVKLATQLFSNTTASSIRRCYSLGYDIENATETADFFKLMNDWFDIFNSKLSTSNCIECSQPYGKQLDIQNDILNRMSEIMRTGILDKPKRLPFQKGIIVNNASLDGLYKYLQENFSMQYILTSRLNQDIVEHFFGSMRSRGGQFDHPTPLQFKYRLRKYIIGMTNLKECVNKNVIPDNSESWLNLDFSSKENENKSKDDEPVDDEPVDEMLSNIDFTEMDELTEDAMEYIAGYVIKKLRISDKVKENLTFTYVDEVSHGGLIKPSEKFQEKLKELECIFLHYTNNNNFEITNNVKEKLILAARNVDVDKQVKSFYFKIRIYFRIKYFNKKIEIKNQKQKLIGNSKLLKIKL

[2] = tested on: piggyBac transposase; experiment: cell_activity; settings: germline remobilization rate in Drosophila with constitutive transposase; TTAA target; 10% with heat shock helper

Substance	activity [1]	activity [2]
XP (P element) transposon	50%	–
piggyBac transposon pB[w+]	–	60%
